From US20110044911A1 come the findings set out here.

This experiment deals with receptors for CRF on murine pituitary tumor cell line AtT-20 (murine). The experiment in a line: cell-based or functional assay.

For the substance “CRF-conjugated dextran-coated and maleimide surface-modified magnetonanoparticles (peptide)”, the Production of c-AMP (nM) stood at 2 fold and the fold decrease in Production of c-AMP (nM) came out at 10 fold.
